Results taken from paper PMC11862925.

Key:
[1] = biological target: B.1.617.1/3 variant RBD (L452R, E484Q) (SARS-CoV-2) (UniProt P0DTC2); test: BLI
[2] = biological target: B.1.351 variant RBD (K417N, E484K, N501Y) (SARS-CoV-2) (UniProt P0DTC2); test: BLI

“ACE2-COMP (from UniProt Q9BYF1 19-615; P35444 29-73)” gave a percent of bound ACE2-COMP retained after 8 h of dissociation [1] of 90% and a percent of bound ACE2-COMP retained after 8 h of dissociation [2] of 90%.
